Measurements from US8093046B2, “CVN-12p1: a recombinant allosteric lectin antagonist of HIV-1 envelope gp120 interactions” (Philadelphia Health and Education Corporation d/b/c Drexel …, priority 2006, dated 2012).

B1: CVN: 11 kDa protein originally isolated from the cyanobacterium Nostoc ellipsosporum, binds high mannose oligosaccharides of gp120 (protein)
chain: LGKFSQTCYNSAIQGSVLTSTCERTNGGYNTSSIDLNSVIENVDGSLKWQPSNFIETCRNTQLAGSSELAAECKTRAQQFVSTKINLDDHIANIDGTLKYEHHHHHH

Assays:
HIV-1 BaL [1] = test: Viral synergy study, HIV-1 BaL replication in PM-1 cells (gp120 ELISA); type: cell-based; conditions: 12p1 16-31 μM
Description: The curves are also shown for the dose response expected if the effects were simply additive.
Viral replication was determined by gp120 ELISA after a seven day incubation.
Dilutions and cells were in RPMI supplemented with 10% fetal calf serum, pen, strep and glutamine. Cells were incubated for 7 days and viral replication determined by gp120 ELISA. Each condition was performed in sextuplet and the mean used to calculate IC50 values. Analysis of combined effects was also carried out using the median effect principle developed by Chou and Talalay^39,40, and using the computer program CalcuSyn (BioSoft).

HIV-1YU2 gp120 = HIV-1YU2 gp120 (Human immunodeficiency virus type 1 group M subtype B, UniProt P35961); conditions: at 300 nM, about 250 RUs gp120 immobilized
Description: Approximately 250 RUs of either YU2 gp120 or the non-specific control antibody 2B6R were immobilized to a CM5 dextran chip by amine coupling. […] Signals from the reference 2B6R flow cell were used to correct for non-specific interactions and bulk effects (FIGS. 4A, B).
All surface plasmon resonance studies were performed on a Biacore 3000 (Biacore Inc., Uppsala, Sweden). CM5 dextran chip was derivatized by amine coupling with 250 RUs of YU2 gp120 or 2B6R (anti-IL5 receptor βchain) IgG as a control surface. […] Surfaces were regenerated with multiple short pulses of 10 mM glycine HCl, pH 1.7.

[2] = system: gp120s from a variety of strains of HIV-1 of diverse clades and tropisms; test: ELISA binding to gp120 of a variety of clades and tropisms; conditions: 50 nM, 100 ng gp120
From the text: Bars represent triplicate determination after the subtraction of non-specific binding to BSA. Error bars indicate one standard deviation.
We therefore tested the ability of the chimera to bind to the gp120s from a variety of strains of HIV-1 of diverse clades and tropisms.

YU2 gp120 / mAb 2G12 = YU2 gp120 / mAb 2G12 (Human immunodeficiency virus type 1 group M subtype B, UniProt P35961); conditions: ELISA, 50 μg/ml 2G12
From the text: Monomeric HIV-1YU2 gp120 was adsorbed onto ELISA plates overnight prior to blocking with 1% BSA.
This antibody recognizes the conformationally-flexible, CD4-unliganded form of gp120^53.

YU2 gp120 / mAb 17b [3] = molecular target: T1, YU2 gp120 / mAb 17b (Human immunodeficiency virus type 1 group M subtype B, UniProt P35961); conditions: ELISA, 2 μg/ml 17b
YU2 gp120 / mAb F105 = molecular target: T2, YU2 gp120 / mAb F105 (Human immunodeficiency virus type 1 group M subtype B, UniProt P35961); conditions: from literature; cited from earlier work
T2 construct: made in house; host or cells: gp120: Drosophila S2 cells

SHIV89.6P = conditions: cited from earlier work
[4] = system: SIV/HIV-1 virus SHIV89.6P; conditions: gel formulations applied rectally, male macaques; cited from earlier work
HIV-1 BaL [5] = conditions: recombinant CVN; cited from earlier work
YU2 gp120 = YU2 gp120 (Human immunodeficiency virus type 1 group M subtype B, UniProt P35961); conditions: read-out: Equilibrium dissociation constant KD for binding to YU2; cited from earlier work
[6] = molecular target: gp120 of HIV-1 JRFL and HIV-1 89.6; conditions: cited from earlier work
YU2 gp120 / mAb 17b [7] = molecular target: T1, YU2 gp120 / mAb 17b; conditions: from literature; cited from earlier work

Molecule | Inhibitory effect on viral replication alone (HIV-1 BaL [1]) | Biosensor signal on immobilized YU2 gp120 (HIV-1YU2 gp120) [RU] | Binding to gp120s of diverse strains in ELISA [2] | Competition of gp120 binding to 2G12 antibody (YU2 gp120 / mAb 2G12) | Effect on interaction between 17b and gp120 (YU2 gp120 / mAb 17b [3]) | Effect on F105 binding to gp120 (YU2 gp120 / mAb F105) | Clinically adverse effects in in vivo assays (SHIV89.6P; macaques, gel) | CVN treated macaques not infected (SHIV89.6P; vaginal gel, SHIV89.6P challenge, controls 8 of 8 infected) | Protection against rectal challenge [4] | Cytotoxic effects in ectocervical explants (HIV-1 BaL [5]) | Infection of human ectocervical explants (HIV-1 BaL [5]) | Kd (YU2 gp120) [nM] | Affinity (KD) of interaction with gp120 [6] | Effect on 17b-gp120 interaction (YU2 gp120 / mAb 17b [7])
RINNIPWSEAMM [12p1] | only small inhibitory effect |  |  |  |  |  |  |  |  |  |  |  |  | 
B1 |  | 95 | behaved equivalently with all strains tested | show the expected competition | neither CVN nor L5-S12p1 had any effect | minimal effect | no clinically adverse effects | 15 of 18 | protected against challenge | no cytotoxic effects | blocked HIV-1 BaL infection | 11 | in the nM KD range | cannot inhibit this interaction
